# From the DeepSol protein solubility set
# Assay: soluble on expression in E. coli; label from the status in PepcDB or PDB records
row,Sequence,soluble on expression in E. coli
1,MVSFTKDQIADIIRKVGDGTSPEALESAVRNVLAKLQSEGLSAPASQGGKLDASSYPLGIKRKDLVKSATGLGLDDITIEKVVSGEIQFDDIKTRPETLAYQNEIAKSVNRPNLANNLARAGEMTRIPDARLLEMYNFLRPYRAAKQEMISMAEELEQKYQAPACAKLVREAADVYEKNNRLKGDR,not soluble
2,MGSDKIHHHHHHQSLKLSDNVVRIGVLTDLSGVYSELSGQGSVKAAQMAAADFMAMNPSFRGKVQVIGVDHQNKADVASNKAAEMIDRQKVDVLMDLPTSSAALAASEVARQKKVPVMVVTGGTTALTNEKCNKYTFHYAYDNYMLANGTGTAVTKRGGNSWYIIYPNYAFGQDLNRQMTAAIQENGGKLVAPSDATPFPNTDFSSYLLKAQGLKPKVFGTMQAGADLVNVVKQYNEFGLRQQGIGLGIGLLFETDVAALGQDAFAGALATVPWYWNMDQRARDWAAKFEKAFGKKPTWAQAGVYSATMTYLQAVARAKSDDGDAVVKALEGHRFSDFFARNAYVRPQDHRVMLDVYTVQVKPKAQAKENGDYFNKVATIPAARAFMPLSESKCRM,not soluble
3,MGSDKIHHHHHHMTLHKICILGGTGFVGRHLAERLSQKGHAVRILTRNRERHRENLLVLPGVELIEANVHDPVALKKQLAGRDVVINLVGILNERHQGDFDRNHVELPRLVVGACNDLGIPRLLHMSALGASPTGPSAYLRSKGTGEEIVRQSNGNRAEMGRFDDLEEPMPLWSHGLKTTSFRPAVIFGEGDSFFNRFAGLLRRIPFFIPLARSKARMQPVWIEDVVSAYVQSMDDEKTYGQAYDLCGPKVYTLGELVAYTQSLIGTRRVIVPLGDFAGNLQASIMERLPGKVLTRDNLLSLSIDSVCTRNDLAESFQIEATSVESIVPGYLGGKGARAERLAEIRNRRS,not soluble
4,MRVEKAWFLADGAEAPEGLPEGGFREVALPHQWSLEGVEAEVGWYRLALPEAGPRRFLLSFGDYYQEAWLDGTYLGRHEGYFFPWVLELPKGKELFLRVSAPKEPLGVWPRFKRQIKGVFGQHDCRPGGTTARGQERGTGGLWGGVEVWAREEVALLGLAHRLFPRAGGWRLWVRLLVDAQRPFRERARLFLVPANFPGEALEREAVLEGEAGRAWREVVWDLPEMPLWEVWERGFPHLFRLEADLLGARLGVPLGFRTVEVDGEGWLLLNGKRLFLRGTNAIPTQWLAAYSEAMAQKDVALLKEANLNAVRVHAHVTHPAFYAACDREGVLVWQDFPLQWGYAPDEAFAQEALRQARAMVEVLGAHPSVYLWCAQNEPTHNRHALGPLLAAALRAADPTRPVKEASDFREHPYPGWYRGHYRDFLALPGAPLPSEFGAQALPRAELLRRVLGEAAWPPRWEVWAYHNFQPHETFRVARVEMGESLEEFVERSQDYQARLIEFAVHAYRRAKGKVVGYFQFMFVEPWEGITWAVLDVERVPKKGFFALKEASSPVLLSLVPYRERVEVGGPPCRRPGS,soluble
5,MELVAYAMAAKLITETVQITINSISETLETINSDPTVRIDNLNELKRRNDEAHSQYMKELKEAREESDDALAKRQATADSQISELINSNNEAIRELQKKFDEDAAAYDRSIKETTREHDQKMKEMRSETREAQEKAERNHREKMSKIKEDHDKERVAALQKIDAAKKEGAEMIALVEMEKQKIVRERADEMNEHHKNMETMTKEYHQKREEIHEVIKNKKLDILKDKREHQRIEHEKISENMKNAFNALLNVQRENNAKHLVSNFQQLFEPVEDVKKLLDSVKIKIELVDGKDPKIEAEQLYDLEEIQAKKSIFENRIRRLRSILIHSSFTDRKLHEICSTTISNIETLMNKSDILSVCHHFPRAVEKQDLKKIKHYADMARSLSDTFSQELGNIIDTFSTSSGMYIIEKEHQEAIEN,soluble
6,MGLKAINTSLSKNDLAHLGAGEVGYIRKMRSEEVSRCFPEAPEMGPGIDLWALFGADGTPILLTDNRSSTFFKAAEDDLRTVSLH,not soluble
7,MPKAKAKTKNTEIISPHHYVYPNTTTLKNKYGIKNLNAFLEKCSHDTAKAMINLREESLPEYFDTAYLCHIHQQLFKNTFEWAGYLRHIPFTFADGTTAAMPEMKRTGWKNAFAIGDEIQEGLQRLDQTLAEKNNLQGLTREEFNSEAIELFNSLNQLHPFREGNGRTQRLFFENLAKAAGHQLNFSLITKERMMVASVAVAENGDLEPMQHLFEDISNPEKIRLLKEFMHTMKNTGRNVNDRPVMVAKEGETYTGTYRGAGLEGFALNVKGAYIIGNIDHLPPEQLKILKPGDKITFTAPK,soluble
